Reference: patent US20090252748A1 (Biogen, published 2009)

Legend:
[1] = biological target: T1, human Sp35 protein (ELISA, Western, KD; form not stated) (human, UniProt Q96FE5 40-538, limits assumed); test: ELISA
T1 construct: also called huSp35; hLINGO-1
T1 sequence: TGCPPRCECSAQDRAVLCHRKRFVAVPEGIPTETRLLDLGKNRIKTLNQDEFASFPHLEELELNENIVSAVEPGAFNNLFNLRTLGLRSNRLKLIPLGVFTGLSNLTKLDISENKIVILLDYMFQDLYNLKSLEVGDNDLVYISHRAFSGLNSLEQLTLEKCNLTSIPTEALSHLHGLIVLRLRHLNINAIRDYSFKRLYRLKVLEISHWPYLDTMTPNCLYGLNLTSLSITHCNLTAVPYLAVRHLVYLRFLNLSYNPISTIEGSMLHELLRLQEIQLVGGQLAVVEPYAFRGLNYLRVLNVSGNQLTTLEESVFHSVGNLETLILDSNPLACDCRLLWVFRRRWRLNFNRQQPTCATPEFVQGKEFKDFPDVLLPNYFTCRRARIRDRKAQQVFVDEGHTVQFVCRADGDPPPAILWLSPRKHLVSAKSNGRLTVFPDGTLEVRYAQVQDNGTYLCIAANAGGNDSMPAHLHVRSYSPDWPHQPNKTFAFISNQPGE

[2] = biological target: T2, full-length human Sp35 with an N-terminal HA tag (lysate of transfected COS-1 cells) (human, UniProt Q96FE5 40-620); test: IP
T2 construct: used here for all IP columns headed huSp35 / hLINGO-1; also called huSp35 (IP); hLINGO-1 (IP)
T2 sequence: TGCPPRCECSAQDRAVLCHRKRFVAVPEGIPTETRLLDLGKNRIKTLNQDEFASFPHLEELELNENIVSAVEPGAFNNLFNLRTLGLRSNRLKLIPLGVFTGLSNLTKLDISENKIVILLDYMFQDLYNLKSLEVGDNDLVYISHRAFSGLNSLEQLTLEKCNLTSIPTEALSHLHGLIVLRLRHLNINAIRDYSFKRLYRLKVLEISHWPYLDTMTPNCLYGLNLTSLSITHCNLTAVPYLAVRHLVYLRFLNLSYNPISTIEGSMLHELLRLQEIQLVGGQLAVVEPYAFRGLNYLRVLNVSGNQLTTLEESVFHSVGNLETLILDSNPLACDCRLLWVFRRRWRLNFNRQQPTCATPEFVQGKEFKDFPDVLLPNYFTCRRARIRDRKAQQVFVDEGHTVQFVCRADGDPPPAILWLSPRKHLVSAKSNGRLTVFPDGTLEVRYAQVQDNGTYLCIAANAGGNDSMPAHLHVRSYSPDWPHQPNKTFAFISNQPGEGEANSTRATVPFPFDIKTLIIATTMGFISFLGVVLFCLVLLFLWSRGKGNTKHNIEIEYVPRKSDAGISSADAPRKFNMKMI

[3] = biological target: T1, human Sp35 protein (ELISA, Western, KD; …); test: method not stated
[4] = biological target: T3, mouse Sp35 protein (ELISA, Western, KD; form not stated) (mouse, UniProt Q9D1T0 34-532, limits assumed); test: method not stated
T3 construct: also called mSp35; mLINGO1
T3 sequence (looked up): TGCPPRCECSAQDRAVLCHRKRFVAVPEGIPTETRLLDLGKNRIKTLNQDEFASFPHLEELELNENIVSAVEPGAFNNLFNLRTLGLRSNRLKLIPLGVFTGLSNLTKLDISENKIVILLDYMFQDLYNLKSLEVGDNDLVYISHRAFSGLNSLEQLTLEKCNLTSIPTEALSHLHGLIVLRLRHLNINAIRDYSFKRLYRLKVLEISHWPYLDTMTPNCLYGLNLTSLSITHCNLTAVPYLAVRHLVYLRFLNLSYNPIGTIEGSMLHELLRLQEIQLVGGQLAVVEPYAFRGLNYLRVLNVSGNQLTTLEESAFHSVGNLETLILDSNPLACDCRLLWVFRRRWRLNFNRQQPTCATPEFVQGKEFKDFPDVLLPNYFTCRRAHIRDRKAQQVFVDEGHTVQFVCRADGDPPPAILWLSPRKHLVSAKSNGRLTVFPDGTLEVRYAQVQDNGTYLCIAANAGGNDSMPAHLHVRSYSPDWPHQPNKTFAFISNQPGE

[5] = biological target: T1, human Sp35 protein (ELISA, Western, KD; …); test: method not stated; second figure of the same phrase, inconsistent with the 10 nM already written

| Binder | binding result [1] | binding result [2] | Kd [3] | Kd [4] | Kd [5] |
| --- | --- | --- | --- | --- | --- |
| 28-D02 (Li10) Fab (Fab, V domains shown, human, kappa; also called Dli10) VH: EVQLLESGGGLVQPGGSLRLSCAASGFTFSTYPMVWVRQAPGKGLEWVSWIGPSGGVTAYADSVKGRFTISRDNSKNTLYLQMNSLRAEDTAVYYCARPYSSGWWDFDLWGRGTLVTVSS VL: DIQMTQSPSSMSASVGDTVTITCRASQGIGNWLAWYQQKPGKAPTLLIYAASSLESGVPSRFTGSGSSSGIDFTLTISDLHPEDLATYYCQQAQTFPLTFGGGTRVDLK | binds | – | – | – | – |
| 79-G02 (Dli32) Fab (Fab, V domains shown, human) VH: EVQLLESGGGLVQPGGSLRLSCAASGFTFSAYMMQWVRQAPGKGLEWVSSISPSGGNTKYADSVKGRFTISRDNSKNTLYLQMNSLRAEDTAVYYCARGDYGYWFDPWGQGTLVTVSS VL: DIQMTQSPDSLSASVGDRVTITCQASQDISYYLNWYQQKPGMAPKLLIYDAFILEGGAPSRFSGSGSGTDFSFTISNLQPEDIATYFCQQSDQLPVTFGQGTKVEIR | binds | – | – | – | – |
| 80-D02 (Dli34) Fab (Fab, V domains shown, human) VH: EVQLLESGGGLVQPGGSLRLSCAASGFTFSNYEMYWVRQAPGKGLEWVSGIYSSGGITVYADSVKGRFTISRDNSKNTLYLQMNSLRAEDTAVYYCARAAILDWYFDLWGRGTLVTVSS VL: DIQMTQSPSSLSASVGDRVTITCHASQDISNYLSWYQQKPGKAPKLLIYDAFNLETGVPSRFSGSGSGTDFTFTISSLQPEDFATYYCQHYDNLPFTFGPGTRVAIR | binds | binds | – | – | – |
| 1A7 monoclonal antibody (antibody, mouse IgG1, V domains shown, murine IgG1/kappa; also called P1A7; 1A7 mAb) VH: QVQLVQSGPELKKPGETVKISCKASGYTFTNYGMNWVKQAPGKGLKWMGWINTDTGEPTYTEDFQGRFAFSLETSASTVYLQFNNLKNEDTATYFCAREGVHFDYWGQGTTVTVSS VL: QIVLTQSPAIMSASPGEKVTMTCSASSSVSYMHWYQQKSGTSPKRWIYDTSKLASGVPARFSGSGSGTSYSLTISSMEAEDAATYYCQQWSSNPFTFGSGTKLEIK | – | – | 10 nM | 20 µM | 1 nM |
